{
  "source": "paper PMC2746561",
  "key": {"[1]": {"molecular_target": "microtubules (polymerized tubulin) (UniProt Q6B856)", "test": "co-sedimentation"}, "[2]": {"molecular_target": "full Ska1 complex (Rama1/Ska1/Ska2) (human) (UniProt Q96BD8)", "test": "SEC + other: sucrose gradient sedimentation"}},
  "data": [
    {"substance": "full Ska1 complex (Rama1/Ska1/Ska2) (from UniProt Q96BD8 1-255; Q8WVK7 1-121; Q8IX90 1-412)", "values": [
      {"measurement": "stoichiometry N (per tubulin dimer)", "setting": "[1]", "value": 1},
      {"measurement": "stoichiometry N", "setting": "[2]", "value": 2}
    ]}
  ]
}
